Measured values from PMC3197789.

Columns and labels:
[1] = system: 7HC-STAT3beta, Src-phosphorylated (pY705); experiment: EMSA with unlabelled hSIE competition; conditions: not given in the material (Supporting Information not held)
[2] = system: wt STAT3beta, Src-phosphorylated (pY705); experiment: EMSA with unlabelled hSIE competition; conditions: not given in the material (Supporting Information not held)

How did the Kd [1] turn out when “hSIE (high-affinity sis-inducible element) probe” was run?
Its Kd is 6.8 nM.

What about the Kd [2] of the same substance?
Its Kd is 6.3 nM.
